We go through 15 molecules from patent publication US20150218281A1 (Ablynx, published 2015).

The term IC50 denotes the concentration at which inhibition is half-maximal. High values mean lower potency, low ones higher potency.

The chains are these.
T1: recombinant human OX40L (extracellular domain, R&D Systems) (human, UniProt P23510 51-183)
T1 sequence: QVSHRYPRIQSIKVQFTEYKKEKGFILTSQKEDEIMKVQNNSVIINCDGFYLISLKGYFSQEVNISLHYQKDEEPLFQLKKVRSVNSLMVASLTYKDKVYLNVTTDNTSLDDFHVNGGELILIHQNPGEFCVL

T2: biotinylated hOX40L (R&D Systems, biotinylated in house) (human, UniProt P23510 51-183, biotinylated with Sulfo-NHS-LC-Biotin, sites not stated)
T2 construct: same bought protein as m10, biotinylated; also called biotinylated OX40L
T2 sequence: T1 sequence

B1: OX40L030 (VHH, not shown: small tags and cut ends)
VHH: DVQLVESGGGLVQAGGSLRLSCAASRSIGRLDRMGWYRHRTGEPRELVATITGGSSINYGDFVKGRFTISIDNAKNTVYLQMNNLKPEDTAVYYCNFNKYVTSRDTWGQGTQVTVSS
B2: OX40L040 (VHH, not shown: small tags and cut ends)
VHH: B1 VHH with A14P, I71R, A74S, N84S, K86R, Q112L
B3: OX40L048 (VHH, not shown: small tags and cut ends)
VHH: B1 VHH with A14P, G60A, I71R, A74S, N84S, K86R, Q112L
B4: OX40L050 (VHH, not shown: small tags and cut ends)
VHH: B1 VHH with A14P, G60A, F62S, I71R, A74S, N84S, K86R, Q112L
B5: OX40L046 (VHH, not shown: small tags and cut ends)
VHH: B1 VHH with A14P, T41P, E43K, I71R, A74S, N84S, K86R, Q112L
B6: OX40L047 (VHH, not shown: small tags and cut ends)
VHH: B1 VHH with A14P, R40A, T41P, E43K, I71R, A74S, N84S, K86R, Q112L
B7: OX40L024 (VHH, not shown: small tags and cut ends)
VHH: EVQLVESGGGLVQPGGSLRLSCAASGRTFSSIYAKGWFRQAPGKEREFVAAISRSGRSTSYADSVKGRFTISRDNAKNTVYLQMNSLRPEDTAVYYCAAVGGATTVTASEWDYWGLGTLVTVSS
B8: OX40L025 (VHH, not shown: small tags and cut ends)
VHH: B7 VHH with A76S
B9: OX40L027 (VHH, not shown: small tags and cut ends)
VHH: B7 VHH with A76S, L116Q
B10: OX40L026 (VHH, not shown: small tags and cut ends)
VHH: B7 VHH with L116Q
B11: OX40L028 (VHH, not shown: small tags and cut ends)
VHH: B7 VHH with E1D
B12: OX40L039 (VHH, not shown: small tags and cut ends)
VHH: B7 VHH with E1D, A76S, L116Q
B13: OX40L054 (VHH, not shown: small tags and cut ends)
VHH: B1 VHH with A14P, I71R, N84S, K86R, Q112L
B14: OX40L055 (VHH, not shown: small tags and cut ends)
VHH: B1 VHH with A14P, I71R, A74S, K86R, Q112L
B15: OX40L053 (VHH, not shown: small tags and cut ends)
VHH: B1 VHH with A14P, A74S, N84S, K86R, Q112L

Positions count from the first letter of the chain named.

One assay addresses T1, recombinant human OX40L (extracellular …). Briefly: cell-based or functional assay.
For B1, the “IC50, T cell assay with rec. hOX40L” value worked out at 11 nM.

With B2, the “IC50, T cell assay with rec. hOX40L” value was 9 nM.

Regarding B3, the “IC50, T cell assay with rec. hOX40L” value was determined as 32 nM.

With B4, the “IC50, T cell assay with rec. hOX40L” value came to 43 nM.

Regarding B5, the “IC50, T cell assay with rec. hOX40L” value was determined as 57 nM.

As to B6, the “IC50, T cell assay with rec. hOX40L” value came out at 126 nM.

The next assay addresses T2, biotinylated hOX40L (R&D Systems, …). In words: hOX40L/hOX40 AlphaScreen, assay 1, native. On the procedure: Next, streptavidin donor beads were added and incubated for an additional 1 hour. Fluorescence was measured by reading plates on the EnVision Multilabel Plate Reader using an excitation wavelength of 680 nm and an emission wavelength of 520 nm. […]
(In general: Bead proximity is the source of the signal in Alpha formats.)
In turn, B1 returned an IC50 of 0.076 nM. In other words, the picomolar range.

B2 registered an IC50 of 0.046 nM.

B3 came in with an IC50 of 0.093 nM.

B4 gave an IC50 of 0.046 nM. This IC50 is about 2-fold lower than that of the molecule before.

On to B5, for which the midpoint of inhibition, the IC50, lay at 0.084 nM.

The molecule B6 came in with an IC50 of 0.269 nM.

For another assay the target is unchanged. Briefly: hOX40L/hOX40 AlphaScreen, assay 2, native. On the procedure: (§1) Next, streptavidin donor beads were added and incubated for an additional 1 hour. Fluorescence was measured by reading plates on the EnVision Multilabel Plate Reader using an excitation wavelength of 680 nm and an emission wavelength of 520 nm.
(§2) In the TSA assay, Nanobodies were diluted to a concentration of 0.2 mg/ml and melting temperature (Tm) was determined at different pH by stepwise increase in temperature in presence of Sypro Orange, a dye that binds to […] residues that become exposed upon unfolding of the protein, using the Lightcycler (Roche) for detection. […] In SEC analysis, the Nanobodies were analyzed on a Phenomenex matrix to allow detection of multimers, aggregates or ‘stickyness’.
For the molecule B2, the IC50 was determined as 0.092 nM.

In turn, B3 displayed an IC50 of 0.314 nM.

Molecule B4 came in with an IC50 of 0.145 nM.

The molecule B5 yielded an IC50 of 0.256 nM.

On to B6, for which half-maximal inhibition (IC50) required 0.735 nM.

A further assay deals with T1, recombinant human OX40L (extracellular …). Briefly: cell-based or functional assay. The source holds these as a separate data set.
Take B7: the “IC50, T cell assay with rec. hOX40L” value came to 1.54 nM.

B8: the “IC50, T cell assay with rec. hOX40L” value stood at 1.15 nM.

Turning to B9, the “IC50, T cell assay with rec. hOX40L” value was 1.43 nM.

As for B10, the “IC50, T cell assay with rec. hOX40L” value was 2.46 nM.

As for B11, the “IC50, T cell assay with rec. hOX40L” value was 2.3 nM.

Turning to B12, the “IC50, T cell assay with rec. hOX40L” value came to 1.6 nM.

A further assay has as its target T2, biotinylated hOX40L (R&D Systems, …). Briefly: hOX40L/hOX40 AlphaScreen, native sample. On the procedure: as §1, §2
B7: 0.07 nM corresponded to half-maximal inhibition (IC50).

B8 yielded an IC50 of 0.06 nM.

In turn, B9 gave an IC50 of 0.07 nM. The IC50 values of the last two molecules are within 1.5-fold of each other.

Molecule B10 returned an IC50 of 0.05 nM.

In the case of B11, half-maximal inhibition (IC50) was put at 0.07 nM.

With B12, the IC50 came out at 0.05 nM.

The target is the same in another assay. Briefly: hOX40L/hOX40 AlphaScreen, assay 3, native. On the procedure:
as §1, §2
Regarding B1, the IC50 stood at 0.143 nM.

The molecule B2 showed an IC50 of 0.102 nM.

Regarding B13, half-maximal inhibition (IC50) required 0.079 nM.

Turning to B14, the IC50 stood at 0.091 nM.

B15: the concentration for half-maximal inhibition (IC50) was 0.118 nM.

For a further assay the target is unchanged. Briefly: hOX40L/hOX40 AlphaScreen, assay 3, heated at Tm+10 C. Here is the method:
as §1, §2
On to B1, for which the IC50 was 0.143 nM.

In the case of B2, the half-maximal inhibitory concentration (IC50) worked out at 0.082 nM.

B13 came in with an IC50 of 0.094 nM. The IC50 values of the last two molecules are within 1.5-fold of each other.

Take B14: the IC50 was 0.106 nM. The IC50 values of the last two molecules are within 1.5-fold of each other.

In turn, B15 gave an IC50 of 0.126 nM.

Another assay has the same target. In words: hOX40L/hOX40 AlphaScreen, sample heated 1 min at Tm+10 C. Here is the method:
as §1, §2
Molecule B7 yielded an IC50 of 0.07 nM.

Consider B8, for which the IC50 is 0.05 nM. The IC50 values of the last two molecules are within 1.5-fold of each other.

Molecule B9 yielded an IC50 of 0.07 nM.

As to B10, the IC50 is 0.06 nM.

B11 registered an IC50 of 0.07 nM.

B12 yielded an IC50 of 0.05 nM.

The target is the same in a further assay. In words: hOX40L/hOX40 AlphaScreen, assay 2, heated at Tm+10 C. Here is the method:
as §1, §2
Turning to B2, the IC50 stood at 0.084 nM.

On to B3, for which it took 0.314 nM to reach half-maximal inhibition (IC50).

B4: the IC50 was found to be 0.164 nM.

For B5, half-maximal inhibition (IC50) was put at 0.221 nM. This IC50 and that of the molecule before are within 1.5-fold of each other.

Turning to B6, the IC50 worked out at 0.557 nM.
